Test in all cases: cell-based or functional assay
Assay [1] concerns the target T1, VEGFR-2 (human, UniProt P35968 20-1356).
For assay [2], the target named is T1, VEGFR-2. The source holds these as a separate data set.
In assay [3] the target is T1, VEGFR-2. The source holds these as a separate data set.

Read-outs that look alike come from different tables or passages of the source. Bridges are numbered along the chain shown (N, C = ends). Primed or numbered codes have the meaning given here. Where no end group is shown, it is not given here. [ ]: non-standard residue; d: D form. hTyr = N[C@@H](CCc1ccc(O)cc1)C(=O)O; Chg = N[C@H](C(=O)O)C1CCCCC1; Tle = CC(C)(C)[C@H](N)C(=O)O; 3Py6NH2 = not defined here; 4Py2NH2 = not defined here; F4aao = not defined here; Ahp′ = not defined here; Atb = not defined here; Yph = not defined here

T1 sequence (P35968 20-1356): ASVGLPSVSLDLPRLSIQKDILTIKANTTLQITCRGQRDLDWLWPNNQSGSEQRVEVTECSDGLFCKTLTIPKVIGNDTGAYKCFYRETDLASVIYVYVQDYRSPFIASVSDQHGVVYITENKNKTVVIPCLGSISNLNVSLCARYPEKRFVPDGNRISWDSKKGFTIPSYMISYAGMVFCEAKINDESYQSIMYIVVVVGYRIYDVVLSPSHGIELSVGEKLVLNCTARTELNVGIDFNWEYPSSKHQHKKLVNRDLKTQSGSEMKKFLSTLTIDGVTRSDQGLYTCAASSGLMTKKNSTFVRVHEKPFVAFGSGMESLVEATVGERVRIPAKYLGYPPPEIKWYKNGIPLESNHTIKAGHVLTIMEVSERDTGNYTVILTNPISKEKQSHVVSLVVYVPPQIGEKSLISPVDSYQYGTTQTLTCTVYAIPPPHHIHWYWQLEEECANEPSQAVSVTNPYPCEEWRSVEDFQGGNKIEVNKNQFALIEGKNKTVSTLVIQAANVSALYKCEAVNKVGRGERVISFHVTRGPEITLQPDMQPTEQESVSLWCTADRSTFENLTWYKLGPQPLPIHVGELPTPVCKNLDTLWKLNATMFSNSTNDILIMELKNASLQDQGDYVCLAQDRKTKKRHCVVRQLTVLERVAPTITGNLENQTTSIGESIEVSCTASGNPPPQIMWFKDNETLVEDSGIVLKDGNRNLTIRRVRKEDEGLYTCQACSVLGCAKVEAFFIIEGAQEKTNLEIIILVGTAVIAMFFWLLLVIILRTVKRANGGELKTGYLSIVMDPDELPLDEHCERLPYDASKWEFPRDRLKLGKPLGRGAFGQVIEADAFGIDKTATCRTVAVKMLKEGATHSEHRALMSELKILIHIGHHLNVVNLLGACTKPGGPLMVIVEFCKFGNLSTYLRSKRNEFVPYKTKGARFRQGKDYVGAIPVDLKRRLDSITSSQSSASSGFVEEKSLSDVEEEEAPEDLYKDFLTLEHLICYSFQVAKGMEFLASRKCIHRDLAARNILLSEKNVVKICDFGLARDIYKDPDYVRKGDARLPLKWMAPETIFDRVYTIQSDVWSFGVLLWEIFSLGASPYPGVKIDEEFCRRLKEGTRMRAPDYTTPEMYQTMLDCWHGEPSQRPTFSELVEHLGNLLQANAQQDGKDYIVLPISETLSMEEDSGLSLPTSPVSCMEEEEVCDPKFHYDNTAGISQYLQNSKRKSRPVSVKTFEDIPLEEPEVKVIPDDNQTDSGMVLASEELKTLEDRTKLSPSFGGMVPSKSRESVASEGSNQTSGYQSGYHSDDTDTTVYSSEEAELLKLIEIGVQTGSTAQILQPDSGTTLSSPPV

B1: Peptide complex Dimer Structure No. 42 (peptide)
peptide: {CH2CO}-WWVDVKDDLYFVDCG-NH2
modifications: thioether N-14; also: homodimer: Lys6 joined to Lys6 of second copy by cPEG17c (Linker Structure No. 4)
As to B1, the “pERK Assay Results (AlphaLISA p-Erk1/2, HUVEC)” value in the assay with VEGFR-2 [1] was at least 50 % activity at 20 nM. Further, the “proliferation (HUVEC, CellTiter-Glo)” value with VEGFR-2 [2] was at least 50 % activity at 1.25 nM.

B2: Peptide complex Dimer Structure No. 47 (peptide)
peptide: {CH2CO}-WW[Tle]DVKNDLYF[hTyr]DCG-NH2
modifications: thioether N-14; also: homodimer: Lys6 joined to Lys6 of second copy by cPEG17c (Linker Structure No. 4)
For B2, the “pERK Assay Results (AlphaLISA p-Erk1/2, HUVEC)” value in the assay with VEGFR-2 [1] is at least 50 % activity at 20 nM. The “proliferation (HUVEC, CellTiter-Glo)” value with VEGFR-2 [2] was at least 50 % activity at 1.25 nM.

B3: Peptide complex Dimer Structure No. 29 (peptide)
peptide: {CH2CO}-WW[Tle]DVKDDNYF[hTyr]DCG-NH2
modifications: thioether N-14; not fully specified (residues 5, 6); also: dimer joined at Lys6 side chains by cPEG17c
Regarding B3, the “pERK Assay Results (AlphaLISA p-Erk1/2, HUVEC)” value with VEGFR-2 [1] is at least 50 % activity at 10 nM. Besides, the “proliferation (HUVEC, CellTiter-Glo)” value with VEGFR-2 [2] was at least 50 % activity at 10 nM.

B4: Peptide complex Dimer Structure No. 20 (peptide)
peptide: {CH2CO}-WW[Tle]DVKDDLY[Yph][hTyr]DCG-NH2
modifications: thioether N-14; not fully specified (residue 6); reading uncertain; also: homodimer: Lys6 joined to Lys6 of second copy by cPEG17c (Linker Structure No. 4)
For the molecule B4, the “pERK Assay Results (AlphaLISA p-Erk1/2, HUVEC)” value with VEGFR-2 [3] is at least 50 % activity at 10 nM.

B5: Peptide complex Dimer Structure No. 19 (peptide)
peptide: {CH2CO}-WW[Tle]DVKDDLY[Yph]VDCG-NH2
modifications: thioether N-14; not fully specified (residue 6); reading uncertain; also: homodimer: Lys6 joined to Lys6 of second copy by cPEG17c (Linker Structure No. 4)
Take B5: in the assay with VEGFR-2 [3], the “pERK Assay Results (AlphaLISA p-Erk1/2, HUVEC)” value was at least 50 % activity at 100 nM.

B6: Peptide complex Dimer Structure No. 43 (peptide)
peptide: {CH2CO}-WW[Tle]DVKDDLY[F4G]VDCG-NH2
modifications: thioether N-14; also: homodimer: Lys6 joined to Lys6 of second copy by cPEG17c (Linker Structure No. 4)
With B6, the “pERK Assay Results (AlphaLISA p-Erk1/2, HUVEC)” value with VEGFR-2 [1] is at least 50 % activity at 5 nM. Moreover, the “proliferation (HUVEC, CellTiter-Glo)” value with VEGFR-2 [2] was at least 50 % activity at 5 nM.

B7: Peptide complex Dimer Structure No. 45 (peptide)
peptide: {CH2CO}-WW[Tle]DVKDDLY[F4G][hTyr]DCG-NH2
modifications: thioether N-14; also: homodimer: Lys6 joined to Lys6 of second copy by cPEG17c (Linker Structure No. 4)
With B7, the “pERK Assay Results (AlphaLISA p-Erk1/2, HUVEC)” value with VEGFR-2 [1] is at least 50 % activity at 20 nM. The “proliferation (HUVEC, CellTiter-Glo)” value in the assay with VEGFR-2 [2] was at least 50 % activity at 5 nM.

B8: Peptide complex Dimer Structure No. 23 (peptide)
peptide: {CH2CO}-[3Py6NH2]W[Tle]DVKDDLYF[hTyr]DCG-NH2
modifications: thioether N-14; not fully specified (residue 6); reading uncertain; also: homodimer: Lys6 joined to Lys6 of second copy by cPEG17c (Linker Structure No. 4)
B8: the “pERK Assay Results (AlphaLISA p-Erk1/2, HUVEC)” value with VEGFR-2 [3] is at least 50 % activity at 10 nM.

B9: Peptide complex Dimer Structure No. 16 (peptide)
peptide: {CH2CO}-WWVDVKDDLY[Yph]VDCG-NH2
modifications: thioether N-14; not fully specified (residue 6); reading uncertain; also: homodimer: Lys6 joined to Lys6 of second copy by cPEG17c (Linker Structure No. 4)
Take B9: the “pERK Assay Results (AlphaLISA p-Erk1/2, HUVEC)” value with VEGFR-2 [3] is at least 50 % activity at 100 nM.

B10: Peptide complex Dimer Structure No. 22 (peptide)
peptide: {CH2CO}-[4Py2NH2]W[Tle]DVKDDLYF[hTyr]DCG-NH2
modifications: thioether N-14; not fully specified (residue 6); reading uncertain; also: homodimer: Lys6 joined to Lys6 of second copy by cPEG17c (Linker Structure No. 4)
With B10, the “pERK Assay Results (AlphaLISA p-Erk1/2, HUVEC)” value with VEGFR-2 [3] is at least 50 % activity at 10 nM.

B11: Peptide complex Dimer Structure No. 51 (peptide)
peptide: {CH2CO}-WW[Tle]DVKDDLY[F4G]VDCG-NH2
modifications: thioether N-14; also: homodimer: Lys6 joined to Lys6 of second copy by OCOPEG17OCO (Linker Structure No. 6)
Consider B11, for which the “pERK Assay Results (AlphaLISA p-Erk1/2, HUVEC)” value with VEGFR-2 [1] is at least 50 % activity at 5 nM. The “proliferation (HUVEC, CellTiter-Glo)” value in the assay with VEGFR-2 [2] is at least 50 % activity at 5 nM.

B12: Peptide complex Dimer Structure No. 24 (peptide)
peptide: {CH2CO}-[F4aao]W[Tle]DVKDDLYF[hTyr]DCG-NH2
modifications: thioether N-14; not fully specified (residue 6); reading uncertain; also: homodimer: Lys6 joined to Lys6 of second copy by cPEG17c (Linker Structure No. 4)
Turning to B12, in the assay with VEGFR-2 [3], the “pERK Assay Results (AlphaLISA p-Erk1/2, HUVEC)” value is at least 50 % activity at 10 nM.

B13: Peptide complex Dimer Structure No. 18 (peptide)
peptide: {CH2CO}-WWVDVKDDLYF[hTyr]DCG-NH2
modifications: thioether N-14; not fully specified (residue 6); also: homodimer: Lys6 joined to Lys6 of second copy by cPEG17c (Linker Structure No. 4)
With B13, the “pERK Assay Results (AlphaLISA p-Erk1/2, HUVEC)” value in the assay with VEGFR-2 [3] was at least 50 % activity at 100 nM.

B14: Peptide complex Dimer Structure No. 53 (peptide)
peptide: {CH2CO}-WW[Tle]DVKDD[Atb]Y[F4G][hTyr]DCG-NH2
modifications: thioether N-14; reading uncertain; also: dimer: Lys6 joined to Lys6 of second copy by OCOPEG17OCO (Linker Structure No. 6)
Regarding B14, in the assay with VEGFR-2 [1], the “pERK Assay Results (AlphaLISA p-Erk1/2, HUVEC)” value was at least 50 % activity at 5 nM. Also, the “proliferation (HUVEC, CellTiter-Glo)” value in the assay with VEGFR-2 [2] was at least 50 % activity at 5 nM.

B15: Peptide complex Dimer Structure No. 21 (peptide)
peptide: {CH2CO}-[Hcit]W[Tle]DVKDDLYF[hTyr]DCG-NH2
modifications: thioether N-14; not fully specified (residue 6); also: homodimer: Lys6 joined to Lys6 of second copy by cPEG17c (Linker Structure No. 4)
As to B15, the “pERK Assay Results (AlphaLISA p-Erk1/2, HUVEC)” value with VEGFR-2 [3] was at least 50 % activity at 10 nM.

B16: Peptide complex Dimer Structure No. 17 (peptide)
peptide: {CH2CO}-WWVDVKDDLY[F4G]VDCG-NH2
modifications: thioether N-14; not fully specified (residue 6); also: homodimer: Lys6 joined to Lys6 of second copy by cPEG17c (Linker Structure No. 4)
For B16, the “pERK Assay Results (AlphaLISA p-Erk1/2, HUVEC)” value in the assay with VEGFR-2 [3] is at least 50 % activity at 100 nM.

B17: Peptide complex Dimer Structure No. 52 (peptide)
peptide: {CH2CO}-WW[Tle]DVKDD[Atb]YF[hTyr]DCG-NH2
modifications: thioether N-14; reading uncertain; also: homodimer: Lys6 joined to Lys6 of second copy by OCOPEG17OCO (Linker Structure No. 6)
Turning to B17, in the assay with VEGFR-2 [1], the “pERK Assay Results (AlphaLISA p-Erk1/2, HUVEC)” value was at least 50 % activity at 5 nM. Besides, the “proliferation (HUVEC, CellTiter-Glo)” value in the assay with VEGFR-2 [2] is at least 50 % activity at 5 nM.

B18: Peptide complex Dimer Structure No. 15 (peptide)
peptide: {CH2CO}-WWVD[Tle]KDDLYFVDCG-NH2
modifications: thioether N-14; not fully specified (residue 6); also: homodimer: Lys6 joined to Lys6 of second copy by cPEG17c (Linker Structure No. 4)
For the molecule B18, in the assay with VEGFR-2 [3], the “pERK Assay Results (AlphaLISA p-Erk1/2, HUVEC)” value is at least 50 % activity at 100 nM.

B19: Peptide complex Dimer Structure No. 46 (peptide)
peptide: {CH2CO}-[W7N]W[Tle]DVKDDLYF[hTyr]DCG-NH2
modifications: thioether N-14; also: homodimer: Lys6 joined to Lys6 of second copy by cPEG17c (Linker Structure No. 4)
Consider B19, for which, in the assay with VEGFR-2 [1], the “pERK Assay Results (AlphaLISA p-Erk1/2, HUVEC)” value was at least 50 % activity at 20 nM. Further, the “proliferation (HUVEC, CellTiter-Glo)” value with VEGFR-2 [2] was at least 50 % activity at 1.25 nM.

B20: Peptide complex Dimer Structure No. 27 (peptide)
peptide: {CH2CO}-WW[Tle]D[alT]KDDLYF[hTyr]DCG-NH2
modifications: thioether N-14; not fully specified (residue 6); also: homodimer: Lys6 joined to Lys6 of second copy by cPEG17c (Linker Structure No. 4)
In the case of B20, in the assay with VEGFR-2 [1], the “pERK Assay Results (AlphaLISA p-Erk1/2, HUVEC)” value is at least 50 % activity at 10 nM. Further, the “proliferation (HUVEC, CellTiter-Glo)” value in the assay with VEGFR-2 [2] was at least 50 % activity at 10 nM.

B21: Peptide complex Dimer Structure No. 2 (peptide)
peptide: {CH2CO}-WWVDV[Ahp′]DDLYFVDCG
modifications: thioether N-14; reading uncertain; also: dimer joined at Gly15 C-termini by PEG12c-K-PEG12c
Regarding B21, the “pERK Assay Results (AlphaLISA p-Erk1/2, HUVEC)” value with VEGFR-2 [3] is at least 50 % activity at 100 nM. For the same molecule, the “proliferation (HUVEC, CellTiter-Glo)” value in the assay with VEGFR-2 [2] was below 50 % activity at 100 nM.

B22: Peptide complex Dimer Structure No. 31 (peptide)
peptide: {CH2CO}-WW[Tle]DVKDDLYF[Chg]DCG-NH2
modifications: thioether N-14; not fully specified (residue 6); also: homodimer: Lys6 joined to Lys6 of second copy by cPEG17c (Linker Structure No. 4)
As for B22, in the assay with VEGFR-2 [1], the “pERK Assay Results (AlphaLISA p-Erk1/2, HUVEC)” value is at least 50 % activity at 10 nM. For the same molecule, in the assay with VEGFR-2 [2], the “proliferation (HUVEC, CellTiter-Glo)” value is at least 50 % activity at 10 nM.

B23: Peptide complex Dimer Structure No. 49 (peptide)
peptide: {CH2CO}-WW[Tle]DVKDD[Atb]YF[hTyr]DCG-NH2
modifications: thioether N-14; reading uncertain; also: homodimer: Lys6 joined to Lys6 of second copy by OCOPEG13OCO (Linker Structure No. 5)
On to B23, for which the “pERK Assay Results (AlphaLISA p-Erk1/2, HUVEC)” value with VEGFR-2 [1] was at least 50 % activity at 20 nM. The “proliferation (HUVEC, CellTiter-Glo)” value in the assay with VEGFR-2 [2] was at least 50 % activity at 5 nM.

B24: Peptide complex Dimer Structure No. 33 (peptide)
peptide: {CH2CO}-WW[Tle]DVKDDLYF[hTyr]SCG-NH2
modifications: thioether N-14; also: homodimer: Lys6 joined to Lys6 of second copy by cPEG17c (Linker Structure No. 4)
For B24, the “pERK Assay Results (AlphaLISA p-Erk1/2, HUVEC)” value in the assay with VEGFR-2 [1] was at least 50 % activity at 10 nM. In addition, in the assay with VEGFR-2 [2], the “proliferation (HUVEC, CellTiter-Glo)” value is at least 50 % activity at 10 nM.
